Measured values as given in US20180215825A1 (BEIGENE, published 2018).

Assays:
Test in all cases: ELISA, FcγR-His coated, preformed immune complex; normalized to hu333-4A2-IgG1wt
[1] = biological target: T1, FcγRI extracellular domain, His tag (human, UniProt P12314 16-292)
T1 construct: extracellular domain
Method: (§1) The extracellular domains of FcγRs were fused to C-terminal His tags as described in previous sections. Recombinant proteins were expressed in 293-F cells by transient transfection and purified using Ni-Sepharose column followed by gel filtration column as described. 2-5 μg/mL of FcγRs were coated on Nunc MaxiSorp ELISA plates (Cat. No. 442404, Nunc, Thermo Fisher) except FcγRIIB and FcγRIIIB, Ni-chelate plates were used (Cat. No. 15242, Pierce, Thermo Fisher). After washing and blocking of the wells, a preformed immune-complex was added to each well and incubated at room temperature for 1-2 hours. […] After washing the plate four times, binding signals were detected by chemiluminescence using Immobilon Chemiluminescence Substrate A/B (Cat. No. WBKLS0500, Millipore).

[2] = biological target: T2, FcγRIIAR131 extracellular domain, His tag (human, UniProt P12318 34-217)
T2 construct: extracellular domain
T2 sequence (looked up): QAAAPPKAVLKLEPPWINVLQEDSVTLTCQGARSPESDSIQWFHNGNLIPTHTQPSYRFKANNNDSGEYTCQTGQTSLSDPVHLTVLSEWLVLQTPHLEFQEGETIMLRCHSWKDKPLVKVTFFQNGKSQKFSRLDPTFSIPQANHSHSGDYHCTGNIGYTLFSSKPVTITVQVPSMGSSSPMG
Method: as §1

[3] = biological target: T3, FcγRIIIAV158 extracellular domain, His tag (human, UniProt P08637 17-208)
T3 construct: extracellular domain; also called FcγRIIIAV58
T3 sequence (P08637 17-208 F176V limits assumed): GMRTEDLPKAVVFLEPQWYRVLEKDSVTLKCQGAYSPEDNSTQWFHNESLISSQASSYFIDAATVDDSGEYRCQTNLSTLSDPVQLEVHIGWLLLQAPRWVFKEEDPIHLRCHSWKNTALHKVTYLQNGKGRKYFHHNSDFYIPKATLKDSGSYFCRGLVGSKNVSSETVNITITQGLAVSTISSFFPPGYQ
Method: as §1

Measured: Relative binding

T1 sequence (P12314 16-292): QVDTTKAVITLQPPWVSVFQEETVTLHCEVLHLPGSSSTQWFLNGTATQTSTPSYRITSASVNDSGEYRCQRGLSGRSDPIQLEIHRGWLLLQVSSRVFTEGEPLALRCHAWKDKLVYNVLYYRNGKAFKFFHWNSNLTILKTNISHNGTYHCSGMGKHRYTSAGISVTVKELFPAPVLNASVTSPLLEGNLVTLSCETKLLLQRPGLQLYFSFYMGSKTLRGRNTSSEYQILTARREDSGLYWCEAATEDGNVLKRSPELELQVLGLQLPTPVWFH

B1: hu333-4A2-IgG1wt (antibody)
heavy: not shown
VL: DIQMTQSPSSLSASVGDRVTITCKASQDVGIVVAWYQQKPGKAPKLLIYWASIRHTGVPSRFSGSGSGTEFTLTISSLQPDDFATYYCQQYSNYPLYTFGQGTKVEIK
notes: light chain constant region (kappa) not tied to an entry for this form
100%: all assays above
